Source: patent US20230414735A1 (BIONTECH US, published 2023)

Target: HLA-B08:01 (human)
Assay: competition with 125I probe peptide on purified HLA
Description: Immunol. 31:813, 1994; Sidney et al., in Current Protocols in Immunology, Margulies, Ed., John Wiley & Sons, New York, Section 18.3, 1998).
(§1) Following incubation, MHC-peptide complexes are separated from free peptide by gel filtration on 7.8 mm×15 cm TSK200 columns (TosoHaas 16215, Montgomeryville, PA). Because the large size of the radiolabeled peptide used for the DRB1*1501 (DR2w2(31) assay makes separation of bound from unbound peaks more difficult under these conditions, all DRB1*1501 (DR2w2(31) assays were performed using a 7.8 mm×30 cm TSK2000 column eluted at 0.6 mLs/min. The eluate from the TSK columns is passed through a Beckman 170 radioisotope detector, and radioactivity is plotted and integrated using a Hewlett-Packard 3396A integrator, and the fraction of peptide bound is determined.
(§2) Since under these conditions [label]<[HLA] and IC₅₀≥[HLA], the measured IC₅₀ values are reasonable approximations of the true KD values. […] For database purposes, and inter-experiment comparisons, relative binding values are compiled. These values can subsequently be converted back into IC₅₀ nM values by dividing the IC₅₀ nM of the positive controls for inhibition by the relative binding of the peptide of interest.

IC50 [nM]	Binder
872	YLGNHMNIA (KIT, V654A)
3180	FELLSTPPL (MYC, P57S)

Target: HLA-B08:01 (human)
Assay: competition with 125I probe peptide for purified HLA class I
Description: as §1, §2

IC50 [nM]	Binder
0.6	LKKLRSPL (also called SMAP1(-1))

Target: HLA-B08:01 (human)
Assay: pMHC-I dissociation half-life, 125I-b2m
Description: Briefly, synthetic genes encoding biotinylated MHC-I heavy and light chains are expressed in E. coli and purified from inclusion bodies using standard methods. The light chain (β2m) is radio-labeled with iodine (¹²⁵I), and combined with the purified MHC-I heavy chain and peptide of interest at 18° C. to initiate pMHC-I complex formation. These reactions are carried out in streptavidin coated microplates to bind th biotinylated MHC-I heavy chains to the surface and allow measurement of radiolabeled light chain to monitor complex formation. Dissociation is initiated by addition of higher concentations of unlabled light-chain and incubation at 37° C. Stability is defined as the length of time in hours it takes for half of the complexes to dissociate, as measured by scintillation counts

Binder	Stability (T1/2 (h)) [h]
SQIMSLWGL (NAB:STAT6 (variant 1 of Chmielecki et al.))	0
FELLSTPPL (MYC, P57S)	0
SLGNHLCPL (MLL2, CRLS)	0.5
YMFLKAESKI (GATA3 CSNH)	0.4
SLMPAHWSI (JAK1(-1))	0
FLLALWECSL (MSH3(-1))	0
FQNGKMALSA (FRG1B, L52S)	0
YVMAYVMAG (HER2, G776insYVMA)	1.2

The next lines start with the values.

Stability (T1/2 (h)) [h]	Binder
0	YLGNHMNIA (KIT, V654A)
0	YVMAYVMAGV (HER2, G776insYVMA)
0	LSLMPAHWSI (JAK1(-1))
0	FLQEQYHEA (GATA3 YHEA)
